Experiment: soluble fraction after stress (log2 fold change); higher = more stays soluble; pooled small domains, quantitative proteomics
Conditions: stress: 50 degC
Outline: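 After stress at 50°C, the amount of each protein still soluble was measured. This was done on pooled custom libraries of small protein domains, using high-throughput quantitative proteomics. The figure given is a base-two log fold change and stands for aggregation propensity, with higher values meaning more protein stays in solution.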

| Sequence | soluble fraction (log2) |
| --- | --- |
| HMQNSLKAFRVKRGLTTSALSRLTNGEFSTSRISNYETGVRALTIDAAKKLAPHLGASPAQLLNL | -0.357 |
| HMSADDLVSRTQAIVAELKDLEGPLLPILHSVQEAFGHVPDEVKPVIAEALNLSRAEVHGVVSFYHDFRAH | -0.112 |
| HMHNQIGDKIRELRTRSNLTQADLGKLVGVSMQAVSKWERGGTPDIDVLLSVAKYFNISLDEMVGRT | -1.08 |
| HMKQNSDDGEIRKIIIEILDNNLDNVNKYKSGRTNVLDFFVGQVMKQTRGQANPELTRSILTEELSN | 0.0594 |
| HMDIVQLSEKINVMKMEIPAQAIGKTVLEVNFRARFDLNIIAIENGGKLVEVIKPDYVFREGDILFLSGS | -1.16 |
| HMRKAERHLLIKQVIDEFTIRTQEELLAKLSDYGVNATQATISRDIRDLKIVKAPDENGISRFVFF | -0.964 |
| HMDTIYMVVAKNIKYYRLIKSMSKKDLAEAVNVTPMAISNYENGKRKPEIDILKKIANVLGVRVVDFLTVR | -1.73 |
| HMDTKLFNYGVGKHAYISWNEGGKRTAYIGFGNDGADVLTINNVKQGGSLGIYKDKITLNSQTVLTD | -0.0296 |
| HMDEGQEHYVKETDLPFYSEADPASSVIFPLVLNQKLIEKERKDDWIRALEPTTGLVGWVLLKSLSPQQLS | 0.124 |
| HMTLDVALSKEIKYMLKEEHYLPGDKLPSERKLAELFHVQRLTVRGALNLLLQDKTIISKPRSGYYVAPKR | -3.1 |
| HMQSTEQVSVTVTIPPGGELRIDSDTFRVLLNGENVLDKQSGDWLMLSRDLLYLDIESAIGNGLSGNLIYT | 0.0974 |
| HMGTVRFYNKERGFGFVVSDDGESVFLPAKALPDGVSDLSPGTRVDYGAALGKKGSQ | 0.153 |
| HMADNKDMQAAFMEALNGLKEYAKVNGNIVTKEDVNSYFKDMHLDDNKYSMITGYLMANGITIKG | 0.23 |
| HMQDSIYYAQYRINIRNMPSSEGMVISRASVGEALEVLDWQEQWSKVRKQSGVEGYVASRLLTK | -1.24 |
| HMDIVGAINKIESMKQDRYLAMHPYSITHSADGYYRTYLPADDGKRKQIKKKSKSDLEKVVIDYWTKRS | 0.0365 |
| HMSTMVEIPNVVGMTIKEAKEALGNLGLSISKISGSNEDSAIVTEVSPAPGSSVKRDESITLVGQPK | 0.0366 |
| HMATKVNSGVTVRDLAELLGLSSADLIKKLMTMGEMATLTQTLTDDSVKAIADEYDRKIEIVSAAQ | -0.0488 |
| HMHQIFAETVFEDIAFGPRNKGFNEEEVAKQVREAMAFVGLDYDTYAQRSPFQLSGGQMRRVAIAGVVA | -0.0418 |
| HMEQQVDYTQFIQDVRQGQIREVDVDRNGVINGIKRSGENFVTVIPGGYDRDLINDLVKQGVNATGEL | 0.107 |
| HMNNLGSKIKELRIAENLTQEKLAEELNVSFQSISRWENGISTPDISLIPAIARFFGVSTDYLFGLQD | -0.384 |
| HMKNYYSILGVTPDSSEAEIKSAYRRLARKFHPDVNPDGASRFKDISEAYETLSDAKKRFQYDTINGF | 0.107 |
| HMFGQRLRLARKRAGLSMQALAQRMSPPVTAQAISKYEADRMMPSSAVLVGLGKALGVSLDFLMGGQ | -0.835 |
| HMFNRAVSDNEALQVREHFDRDATVMSLAKKYGVSTVTIQRILLGKTYRNVGGPLFDKATLKKRMGN | -0.66 |
| HMVTTDPIADMLTRIRNASSQKHKSVDVPASKEKLAIAQILFEEGYIKSFEEIKEENNQGVIRITLKYTEK | -0.0766 |
| HMDIYENIDKELSKQGKSRRKLAIAAGIPPSTFQSMMERKRGLSVENLRKIAEVLNLKWYDLL | -0.195 |

| Sequence | soluble fraction (log2) |
| --- | --- |
| HMATVELELKPEELRAGMILTKDLISGTGMMLLNKGVTLDNVKVEAIQRYYQLDPPLHGVFALVHGK | -0.503 |
| HMRPKAIFVDVDDTLVRSVGQTRIPMPAVIAHIRRLHDAGHQLYLWSSGGADYARASAEELGIGQYFQAFL | -0.26 |
| HMIDIDTILKKYKPGRRDELIPLMQEIQEVYGHLSEEAVVKIGTYVGLSTTKIYGLATFYDQFRF | -1.24 |
| HMTQFSLTTEEINVLKKSYSEFTDSDKELFNKILEKYNKFKNESSNDIAFEAKILEKLQEIENFYE | -0.126 |
| HMLLELINLQVKILENEELKIIGKVIDLENEKNNLLVIELLKDQKKVLVPFVKEIVPLIDIKNNFIMINPP | -0.897 |
| HMNQDIIEIGNNIQKIRKKNGISQSVLAEKIDVAGNSIYRMEGATTVMGVDKLINIADALNTSPMDILPAR | 0.13 |
| HMQITDSGAIETIIDKIIADNPGQVTQYLSGKDKVFGFFVGQTMKASQGKANPAEVNKILQEKLK | 0.00553 |
| HMTNELVNVNKLLDVMEPSIPLTALEIMTRLGIKSKETLRNSYLNPAIKLGMINLTSPLKPTSKNQMYYK | -0.307 |
| HMVLSPAQVRRALMVSGLFTEARVARQLGVPMDLKQILRIILRNTPPQSAMARELESAIDEIESRNAMRD | -1.62 |
| HMQVIDNHWRPSRDALDILLRDGISEHFIEDAIPEFILYWRERGTQDSNWNSRFLQHIRLQWARYTNAV | -0.433 |
| HMSKPVVWIVGDSTVSAFTDNYYYPRYGWGTQIDKYLDGTFEVKNIALSGRSSTSYTADKEYGELIAG | 0.0416 |
| HMFDKNKPVVVEGENAEVALKKVSKYFNVPTEKLDYTLLGQKSAGLLGIGSKVYQFKVWLKREIP | 0.396 |
| HMENNNIAFSKFLEEVDSGRVVQVEIQGNNISGTLSDGSKFKTYSPNYPDLVSKLSEKNVSIIASPV | 0.115 |
| HMQISLAAARVNAGLTQEEVAKAMKVGKQTIVSWEKGNSEPKMSQSRELSELYKIPLDYIFYP | -0.322 |
| HMSADIGAEKAKTIALNHAGVSASNAVFLHAKLDYDDGRRTYEVEFYSGSKEYDYEIDAATGEILSYDFD | -0.777 |
| HMALSETIYRLRTEHGLSQGDLAAELDVSRQSISKWETGSSVPELDKLVAMSRLFGVSLDELVLGE | -0.63 |
| HMLLSYDIAEYIEKYIHEHGLQPGDRLPTERELAAQLDITRVSVRQGYKRLLDQGVIRSENGYYVNPPR | -1.34 |
| HMTETFVLNLRQPIAAAPVLPGYRVARTDEQTLEVEVSKDQNLNEIFTALSALGVEVLSMRNK | -0.12 |
| HMGRSYTIKSGDTLWAIATRYYGNGAQYSKIYNANKGTIESVAKSRGFRSSQNGHWIFPGTSITI | -0.207 |
| HMQTYTYYIAKNDISIGQKITPDMLIEKQVNLGDSKDRYLSREQLETGKYIAVRQIPAGELISSASANE | 0.157 |
| HMKIDANTFTSIEKQLFVLLSKTPTPMGSIFVALAKEDKEAVWEVIHFLEAENRLIMNEDGTIQL | -1.39 |
| HMAFKEQLKAARLAKGYTQEQLATAIGVAKSTFTGYEKGNSEPNMLTIKKLMEILEVDANYLWY | -2.49 |
| HMKTKTAPPDSIPPAWLKESATLRPDLNQAQIKASAEVFLDHHRAKGTTLADWRPAWRNWIRRERA | 0.116 |
| HMKNVENIILEQLKKNIYDDLNNASFEEIILIDAEKSIYKGTIKANYIEYNFKINLSTGEILKWKLK | -0.117 |
| HMSRSLLAALEKLRESHTGSLPASVLSSAQRRSLESFAQTTKSVQMRPSGRGVVFAIINPEVVDKHWRELS | -0.497 |

| Sequence | soluble fraction (log2) |
| --- | --- |
| HMSLPDREVVLETSSDSYYHFKTDHFQRQITYSAVRNAPVRLVTISAERAFEVISLNRRGERPEHLE | -3.53 |
| HMADEDTILALAKEILASWPDKVEAYKNGNKGMLGLFMGELMKKSGGKANPKSASALIQKLLE | -0.0387 |
| HMSKHLWNKVLPKVTTANITNLINQAIRKGEWRMDNKGVVHIIWRYRGKIIEVTGYLKDKVFNVGNAWVR | -0.122 |
| HMLIDSEILKKTNKITIFLIYAFFSEYLINKEKKKILIGEYIKLSKDFLTIEEVKYFNHLLDDISK | 0.0074 |
| HMADLSAYAGKEGMTDSVLRPSGKVDIEGHILDAVSRGDFIEKGKRVIVIKAEGSYLVVKKRMP | -0.175 |
| HMIRDVDYNTFVSMVQEGKVGQVEIQEQNNRILFTDKDERTVYKTAMVPDSDLISRLLEAGVSTS | 0.204 |
| HMAPTVPEVVRLEEGAARSAIEAAGLSVGSVEFRASSDPAGTVLATRPIAGRKVRPSSAVDLVLSDGRTP | 0.0905 |
| HMPREVKLPPDLLDALEASPEAKAFFLQLSYTHQKEYAQWIEEAKQEATRQRRLEKTVQMLLEGRRT | -0.0798 |
| HMEAADAGTLAQRAAQYFNEKNYAAALDALERRAAMAPETTELRMMRGWSLLHLNRKDEARNAFATLG | -0.0562 |
| HMVQYVDFVKRMIEELPWWHRRMLELKYLDGLTYEEIADELQVPVGTVKGTLHRAKELFQEILKNN | -2.05 |
| HMKMAKTIKEIAEEIGVSKQAVFKKIKQVPLSTEIEKFISTVDGKKLVSVDGENLIKQAFQR | 0.325 |
| HMELLEVSVIIREADSTGWSAARQGMEQAAADLGAELRFLTLSQSNSAEEQRSLLAREVEGGADAVVLV | -0.142 |
| HMNTVSPAVSAQLRQELGGELNNANFQQLQQYLQAGQRDEAIVYLTSLGIESPRAVSIVNNAMDQIG | 0.124 |
| HMGPFYFDQDGKAYSGLLNRNGEILYFADPFNAAVKNTTKTIDGKTYTFNQNGRATSIDGIPLEPP | 0.142 |
| HMGIYDQAAAAYIEFVESKNRAPKWNELIDALYKENGKDWIDRSTLHGLLRRKEFQELLAQKRKEHLV | -0.184 |
| HMQGENDVTIDPKKLTIGDLAKEISKIEDSEELNNILVAEKEGKGRKGAINAITERIENVSGGTG | 0.133 |
| HMVNINEVEVSRDLAHAKVFVTFVGDRTDEINTQALKVLNAAQGFLRSRIASNNHMRTTPRIHF | -0.663 |
| HMGLGDLEVVDSIGKIRRDGQQMILAFGRHKGRDVQEVYNEDPRYINWLLSPKGIEDENGRGKVRDYLGIN | 0.163 |
| HMSLQEISDLISQAERADQEQLKEVLKQLHQVESGNQPMSKGFLSSALSTLNKYPALITSIGQLLFKLAT | 0.00954 |
| HMTGLSAQILAKLRDNHGVLPVSDKSDPAVISNLFGVSKGNFKKAIGGLYKEGQIVIHADRIEL | -0.0576 |
| HMAIGTDPETGISVVADGTDFIWTRSGATSTIFLRLDSENSYILNVKQGDFEVIDYELGEGQENAINIDQS | -0.0311 |
| HMPKMISPAQIKAIGAKTNNIAKASGVEQAQVYQSAVAHLGINNKSTKELTSQEASKVIEYLSTL | 0.0861 |
| HMHGSSVEIPNIYGLPASEAVQLLDKADLRYEVIDSVYTTEVPKGAVYDLSPKAGSRVKAGRIIFLTLNA | -0.756 |
| HMVGIVQKTFEPTGIAAEELMKTLKSDKSLDFGNVQILATPKSSTSRQVVVVSGRANDVDRVMMVLSNLDS | -0.108 |
| HMLQLSDAISRVESFLQGQNRNLAFSIDENTERSVVTVLDSDTGDVIRQIPSEELLVLAKRIQELQQD | 0.151 |
